Measurements reported in the nanobody polyreactivity screen of Harvey et al. (2022).

Assay: yeast display, Sf9 membrane polyspecificity reagent, FACS + sequencing; frameworks hold sequencing errors
Procedure, shortened: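 After 36–48 hours of galactose induction, yeast (Saccharomyces cerevisiae BJ5465) displaying a synthetic nanobody library were stained at 4 °C for 1 hour with 10% biotinylated, detergent-solubilized Sf9 membrane reagent. Streptavidin microbeads enriched the stained cells before FACS sorting into low and high (top ~1%) gates on anti-HA and streptavidin fluorescence. Each clone's polyreactivity label reflects its gate of origin.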

Sequence | polyreactivity (PSR sort gate)
QVQLVESGGGLVQAGGSLRLSCAASGSTFWFYAMRWYRQAPGKERELVAAITRSAGSTYYADSVKGRFTISRDNAKNTVYLQMNSLKPEDTAVYYCAAQRESLYGGFDYWGQGTQVTVSS | low polyreactivity
QVQLGESGGGLVQAGGSLRLTCAAYGRIYGGNAMGWYRQATGKEWELDAGISRRGGSTYYADSVKGRFTISRDNEKNTVYLQMNRLKPEDTAVYYCYAYYRYSVFAEKYDYWGQGTHVTVSS | high polyreactivity
QVQLVESGGGLVQAGASLRLSSAASGFIFRDYAMGWYRQAPGKDRELVAAISRGGGTTYYEDSVKGRFTISRENAKNTVYLQMNSLTPEDTAVYYCAAKSAFPLDYWGQGTQVTVSS | high polyreactivity
QVQLVESGGGLVQAGGSLRLSCAASGFIIKYYAMGWYRQAPGKERELVAAIDGSSASTYYADSVKGRFTISRDNAKNTVYLQMNSLKPEDTPVYYCAVARLRRGGVQYGYWGQGTQVTVSS | high polyreactivity
QVQLVESGGGLVQAGGSLRLSCAASGITFVFYAMGWYRQAPGKERELVAAISWSGGITYYADSVKGRFTISRDNAKNTVYLQMNSLKPEDTAFYYCAATKRQTKYYGGTTDSIMYYWGQGTQVTVSS | low polyreactivity
QVQLVESGGGLVQAGGSLRLSCAASGFIIVYYAMGWYRQAPGKERELVAGISSGGSTYYADSVKGRFTISRDNAKNTVYLQMNSLKPEDTAVYYCATRYLYRGYSYFAYDYWGQGTQVTVSS | low polyreactivity
QVQLVESGGGLVQAGGSLRLSCAASGFIFRRNAMGWYRQAPGKERELVATIRASGGRTYYADSVKGRFTISRDNAKNTVYLQMNSLKPEDTAVYYCNKRGGYYGSPNYDYWGQGTQVTVSS | high polyreactivity
QVQLVESGGGLVQAGGSLRLSCAASGRTFLSYAMGWYRQAPGKEREFVASITLSGGSTYYADSVKGRFTISRDNAKNTVYLQMNSLKPEDTAVYYCNAELYWLPYDYWGQGTQVTVSS | low polyreactivity
QVQLVESGGGLVQAGGSLRLICAASGSIFLGYAMGWYRPAPGKERELVAAISTSGGGTYYADSVKGRFTISRDNAKNTVYLQMNSLKPEDTAVYYCNAVSHYKYDWGQGTQVTVSS | low polyreactivity
QVQLVESGGGLVQAGGSLRLSCAASVSTFSYNYMGWYRQAPRKERELDAAISSGGSTKYADSVKGRFRISRDNAKNTVYLQMNSLKPEDTAVYYCIKDYPQNPLPASSYYLYDYWGQGTQVTVSS | high polyreactivity
QVQLVESGGGLVQAGGSLRLSCAASGFTFDYYAMGWYRQAPGKERELVATITSGGRTNYADSVKGRFTLSRDNAKNTVYLQMNSLNPEDTAVYYCAVDWWNVEYFYSATSGDYWGQGTQVTVSS | low polyreactivity
QVQLVESGGGLVQAGGSLRIRCAASGLIFGFYAMGWYRQAPGKERELVAAINSGGITYYADSVKGRFTISRDNAKNTVYLQMNSLKPEDTAVYYCNKDSHISTAYDYWGQGTQVTVSS | low polyreactivity
QVQLVESGGGLVQAGGSLRLSCAASGRTFYTYVMGWYRQAPGKEREFVAAITYSGGSTYYADSVKGRFTISRDNAKNTVYLQMNSLKPEDTAVYYCNDEWTYSEWYGQYLEFDYWGQGTQVTVSS | high polyreactivity
QVQLVESGGGLVQAGGSLRLSCAASGSTFYSYVMGWYRQAPGKERELVAVITSGGSTTYADSVKGRFTISRDNAKNTVYLQMNSLKPEDTAVYYCAKRNYLSYRYDYWGQGTQVTVSS | low polyreactivity
QVQLVESGGRLVQAGGSLRLSCAASGSTFGWNAMGWYRQAPGKETELVAAISRSGGRTYYADSVKGRFTISRDNANNTVYLQMISLKPEVTAVYYCAADRSTTGGLRGYWGQGTQVTVSS | high polyreactivity
QVDLVESAGGLVQAGGSLRLSCAASGSIFPGYTMGWYRQAPGQERELVAAISRRGGSTYYADSVKGRFTISRDNAKNTVYLQMNSLIPEDTAVYYCAIVPDYRFEYWGQGSQVTVSS | high polyreactivity
QVQLVESGGALVQAGGSLRLSCAASGLTFEVYAMGWYRQAPGKESELVAAISSGGGSTYYADSVKGRFTISRDNAKNTVYLQMNSLKPEDTEVYYCNAVAKLYYWRYDYWGKGTQVTVSS | low polyreactivity
QVQLEESGGGLVQAGGSLRLSCAASGRIFKSYTMGGYRQAPGKERELVAAITKSAASTYYADSVKGRFTISRDNAKNTVYLQMNSLKPVDTAVYYCAASRIGGGKVKFGYWGQGTQVTVSS | high polyreactivity
QVHLVESGGGLVQAGGILRLSCSAYGSIFDVNAKGWYRQSPGKERELVAAISDSGGSTYYADSVKGRFTISRDNAKNTVYLQMNSLKPEDTSVYYCNADWYWYNYYDFDYWGQGTQVTVSS | low polyreactivity
QVQLVESGGGLVQAGGSLRLSCAASGSIFGGYAMGWYRQAPGKERELVAAIDESGGSTYYADSVKGRFTISRDNAKNTVYLQMNSLKPDDTAVDYCLVFRDDSGPGDYYYWGQGTQVTVSS | low polyreactivity
QVQLVESGGGIVQAGGSLSLSCAASGSTFYSYDMVWYRPAPGKERELVAAISWEGGRPYYADSVKGRFTISRDNAKNNVYLQMNSLKPEDTAVYYCADAYPTYRHYYWGQGTQVSVSS | low polyreactivity
QVQLVESGGGLVQAGGSLRLSCAASGFTFAYYAMGWYRQAPGKERELVAAISSGGGTYYADSVKGRFTISRDNAKNTVYLQMNSLKPEDTAVYYCNAANGRYIGSRYVVYTGFYYWGQGTQVTVSS | high polyreactivity

Sequence | polyreactivity (PSR sort gate)
QVQLVESGGGLVQAGGSLRLSCAASGFIFHVYAMGWYRQAPGKERELVARITSSGGNTFYADSVKGRFTISRDNAKNTVYLQMNSLKPEDTAVYYCAKRYRYSVGWPVKNSAFGYWGQGTQVTVSS | low polyreactivity
QVQLQESGGGLVQAGGSLRLSCAASGTISYAPHMGWYRQAPGKERELVAGITIGGTTYYADSVKGRFTISRDNANNTVYLQMNSLSPGDTAVYYCAAHSEQYTPFYYWGQGTQVTVSS | low polyreactivity
QVQLVESGGRLVQAGGSLRLSCAASGSIFRSNAMGWYRQAPGKERELVATISSSTGSTYYADSVKGRFTISRDNAKNTVYLQMNSLKPEDTAVYNCAAVQPVKSSSGYHFWYYWGQGTQVTVSS | high polyreactivity
QVQLVESGGGLVQAGGSLRLSCAASGSIFSRNAMGWYRQAPGKERELVAAISYSGGTTYYADSVKGRFTISRDYAKNTVYLQMNSLKPEDTAVYYCNKRYWVRTGKVSSYDYWGQGTQVSVSS | high polyreactivity
QVQLVESGGGLVQAGGSLRLSCAASGRIFPVYAMGWYRQAPGKERELVASISSSGARTYYADSVKGRFTISRDNAKNTVYLQMNSLKPEDTAVYYCNAVRYFSSHSFISDYWGQGTQVTVSS | low polyreactivity
QVQLVESGGGLVQAGGSLRLSCAASGSTYKFYAMGWYRQATGKERELVAAISGSSGSTYYADSVKGRFTISRDNAKNTVYLQMNSLKPEDTAVYYWNTQYSRYYTRYSAYDYWGQGTQVTVSS | low polyreactivity
QVHLVESGGGLVQAGGSLRLSCAASGGTFWWYTMGWYRQAPGKERELVATITRGGSTNYADSVKGRFTISRDNAKNTVYLQMNSLKPEDTAVYYCSARWYVYVHFERYYWGQGTQVTVSS | high polyreactivity
QVQLVESGGGLVQAGGSLRLSCAASGSIFFHNAMGWYRQAPGKERELVAAITSSGGRTYYADSVKGRFTISRDNAKNTVYLQMNSLKPEDTAVYYCDASPYGFRRNYYWGQGTQVTVSS | high polyreactivity
QVQLVESGGGLVQAGGSLRLSCAASGRTFNWYAMGWYRQAPGKERELVAAITQSGGITSYADSVKGRFTISRDNAKNTVYLQMNSLKPEDTAVYYCATTSRYSRSHYDWYDYWGQGTQVTVSS | low polyreactivity
QVQLVESGGGLVQAGASLRLSCAASGLIFIHYAMGWYRQAPGKERELVATISRSGVRTYYADSVKGRFTISRDNAKNTVYLQMNSLKPEDTAVYYCAADYTTNFWGYRYNYWGQGTQVTVSS | low polyreactivity
QVQLVESGGGLVQAGGSLRLSCAASGRIYIIYAMGWYRQAPRKEREMVAAITRSGGRTFYADSVKGRFTISRDNAKNTVYLQMNSLKPEDTAVYYCAAAFGRVTKYGYRNQYGYWGQGTQVTVSS | high polyreactivity
QVQLVESGGGLVQAGGSLRLSCAASGSTFQYNVMGWSRQAPGKERELVAAIRQSGSTTYYADSVKGRFTISRDNAKNTVYLQMNSLKPEDSAVYYCAKRYHNWANSRMDYWGQGSQVTVSS | low polyreactivity
QVQLVESGGGLVQAGGSLRLSCAASGSIFNYNMGWYRQAPGKERELVAAVSTNYADSVKGRFTISRDNAKNTVYLQMNSLKPEDTAVYYCGVTPEKSGDEYDYWGQGTQVTVSS | low polyreactivity
QVQLVESGGGLVQARGSLRLSCAASGFIFPSYAMGWYRQAPGKERELDAAITWNGGSTYYADSVKGRFTISRDNAKNTVYLQMNSLKPEDTAVYYCNKYYYYRDYGYWVQGTQVTVSS | high polyreactivity
QVQLVESGGGLVQAGGSLRLSCAASGRIFDDNAMGWYRQAPGKERELVADINNATSTNYADSVKGRFTISRDNAKNTVYLQMNSLKPEDTAVYYCAADDYIYYRILGDSFVYKAYGYWGQGTQVTVSS | low polyreactivity
QVQLVESGGCLVQAGCSRRLSCAASVRIFARNTMGWSRQAPGKERELVAAISWGGGRTYYADSVKGRFTISRDNAKNTVYLQMNSLKPEDTAVYYCAAETLQIPRGEYWGQGTQVTVSS | low polyreactivity
QVQLVESGVGLVQAGCSHRLSCAASGSTISAYDMGSYRQAPGKERELVAAITWIGGNTYYADSVKGRFTISRDNAKNTVYLQMNSLKPEDTAVYYCAAEEVPYDRDMDYWGQGTQVTVSS | low polyreactivity
QVQLVESGGGLVQAGGSLRLSCAASGFTFYYNAMGWYRQAPGKERELVAVISSSGSRTYYADSVKGRFTISRYNAKNTVYLQMNSLKPEDTAVYYCAAARIGTRDYWGQGTQVSVSS | high polyreactivity
QVHLVESGGGLVQAGGSLRLSGAASGLTFSGNAMGWYRQAPGKERELVAAISWNGGRTYYADSVKGRFTISRDNAKNTVYLQMNSLKPEDTAVYYCAAEVRYSTYEDYDYWGQGTEVTVSS | low polyreactivity
QFQLVESGGGLVQAGGSLRLSCAASGFTFYRNAMGWYRQAPGKERELVAAITSTGSTNYADSVKGRFTISRDNAKNTVYLQMNSLKPEDTAVYYCNKRRFGRQGMDYWGQGTQVTVSS | low polyreactivity
QVQLVESGGGLVQARGSLRLTCAASGSTFSENAMGWYRQAPGKERELVAAISRGGGRTYYADSVKGRFTISRDNAKNTVYLQMNSLKPEDTAVYYCNAGLPAGNHGYDYWGQGTQVTVSS | high polyreactivity
